The text below walks through data of patent publication US20240252686A1 (SKYLINE THERAPEUTICS, published 2024).

Assay [1] addresses T1, VEGFA-165 (R&D systems 293-VE/CF) (human, UniProt P15692-4 27-191).
T1 construct: Coated on ELISA plates or added in solution to reporter cells; also called human VEGF; human VEGFA
Briefly: competitive ELISA as in Example 7: inhibition of VEGFR2/KDR Fc binding to coated VEGFA-165. As for the experimental part: After removing the blocker, the detection antibody (rabbit anti-human FC HRP, Thermo) diluted 1:5000 with the blocking buffer, and added 50 μl/well incubated at RT for 1h with 250 rpm gentle shaking. After washing the ELISA plate with 1×TBST for 3 times, the TMB substrate was added the plate (50 μl/well); after the incubation at RT for 5-10 min, 2M H₂SO₄ was added to stop the TMB reaction. OD450 and OD525 of the ELISA plate were detected.
The mono-valent and bi-valent Nb24s in the supernatants were quantified by western blot as described in Example 2, and diluted to a series of concentrations.

For assay [2], the target named is T1, VEGFA-165 (R&D systems 293-VE/CF). Briefly: ELISA as in Example 5, VEGFA-165 coated, anti-HA detection. On the procedure:
(§1) After removing the blocker, the primary antibody (rabbit anti-HA, Thermo, PA1-985) was diluted (1:5000) with the blocking buffer (StartingBlock™ T20 (TBS) Blocking Buffer, Catalog number: 37543 of Thermo Fisher Scientific), and added to ELISA plate (50 μl/well), followed by the incubation at RT for 1h with 250 rpm gentle shaking. After washing with 1×TBST buffer for 3 times, the secondary antibody (Goat anti-rabbit-HRP, Invitrogen, 3146) was diluted (1:5000) with the blocking buffer, and added to the ELISA plate (50 μl/well), followed by the incubation at RT for 1h with gentle shaking. After washing the ELISA plate with 1×TBST for 3 times, the TMB substrate (Thermo Scientific, REF34028) was added the plate (50 μl/well); after the incubation at RT for 5-10 min, 2M H₂SO₄ was added to stop the TMB reaction. OD450 and OD525 of the ELISA plate were detected.

Assay [3] shares this target. Briefly: ELISA, VEGFA-165 coated, supernatant, anti-HA detection. On the procedure:
as §1

T1 sequence (P15692 other isoform, or with tags, fused parts or gaps limits assumed): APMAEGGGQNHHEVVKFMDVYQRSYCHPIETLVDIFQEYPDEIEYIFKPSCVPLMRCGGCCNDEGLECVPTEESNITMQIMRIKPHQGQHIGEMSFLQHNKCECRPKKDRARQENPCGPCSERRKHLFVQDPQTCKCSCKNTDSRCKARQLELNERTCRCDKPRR

B1: mono-valent Nb24 with HA tag, product expressed by pGCB108-ITR130-AMDF1huNb24-5-hGHpA (VHH)
VHH: EVQLQESGGGLVQPGGSLRLSCTASGFTFDDPDVGWFRQAPGNECELVSTISKDGSTYYTDSVKGRFTISRDYAKNTVYLQMNSLRAEDTAVYYCAADSNPIAPIRTCLGWYNYWGQGTLVTVSS
notes: Used as supernatant of transfected Expi293 cells, detected by anti-HA; The junction between Nb24 and the HA tag is not spelled out; also called HuNb24-5-HA; Nb24-5-HA
B1 registered an IC50 in assay [1] of 132 nM.

B2: bi-valent Nb24, product expressed by pGCB108-ITR130-AMDF1Nb24-5-(G4S)1-Nb24-5-HA (VHH)
chain: EVQLQESGGGLVQPGGSLRLSCTASGFTFDDPDVGWFRQAPGNECELVSTISKDGSTYYTDSVKGRFTISRDYAKNTVYLQMNSLRAEDTAVYYCAADSNPIAPIRTCLGWYNYWGQGTLVTVSSGGGGSEVQLQESGGGLVQPGGSLRLSCTASGFTFDDPDVGWFRQAPGNECELVSTISKDGSTYYTDSVKGRFTISRDYAKNTVYLQMNSLRAEDTAVYYCAADSNPIAPIRTCLGWYNYWGQGTLVTVSSYPYDVPDYA
notes: Two copies of Nb24 in a single polypeptide; supernatant of transfected Expi293 cells; also called 24-5-G4S1-24-5
B2 registered an EC50 in assay [2] of 400 nM.

B3: bi-valent Nb24, product expressed by pGCB108-ITR130-AMDF1Nb24-5-(G4S)3-Nb24-5-HA (VHH)
chain: EVQLQESGGGLVQPGGSLRLSCTASGFTFDDPDVGWFRQAPGNECELVSTISKDGSTYYTDSVKGRFTISRDYAKNTVYLQMNSLRAEDTAVYYCAADSNPIAPIRTCLGWYNYWGQGTLVTVSSGGGGSGGGGSGGGGSEVQLQESGGGLVQPGGSLRLSCTASGFTFDDPDVGWFRQAPGNECELVSTISKDGSTYYTDSVKGRFTISRDYAKNTVYLQMNSLRAEDTAVYYCAADSNPIAPIRTCLGWYNYWGQGTLVTVSSYPYDVPDYA
notes: Two copies of Nb24 in a single polypeptide; supernatant of transfected Expi293 cells; also called 24-5-G4S3-24-5
B3 registered an EC50 in assay [2] of 346 nM.

B4: bi-valent Nb24, product expressed by pGCB108-ITR130-AMDF1Nb24-5-(G4S)2-Nb24-7-HA (VHH)
chain: EVQLQESGGGLVQPGGSLRLSCTASGFTFDDPDVGWFRQAPGNECELVSTISKDGSTYYTDSVKGRFTISRDYAKNTVYLQMNSLRAEDTAVYYCAADSNPIAPIRTCLGWYNYWGQGTLVTVSSGGGGSGGGGSEVQLQESGGGLVQPGGSLRLSCTASGFTFDDPDVGWFRQAPGNECELVSTISKDGSTYYTDSVKGRFTISRDYAKNTVYLQMNSLRAEDTAVYYCAADSNPIAPIRTCLGWYNYWGQGTLVTVSSYPYDVPDYA
notes: also called 24-5-G4S2-24-7
For the molecule B4, in assay [1], the IC50 came to 25.6 nM and the “fold better IC50 than mono-valent Nb24” value turned out to be 5 fold.

B5: bi-valent Nb24, product expressed by pGCB108-ITR130-AMDF1Nb24-5-(G4S)2-Nb24-5-HA (VHH)
chain: EVQLQESGGGLVQPGGSLRLSCTASGFTFDDPDVGWFRQAPGNECELVSTISKDGSTYYTDSVKGRFTISRDYAKNTVYLQMNSLRAEDTAVYYCAADSNPIAPIRTCLGWYNYWGQGTLVTVSSGGGGSGGGGSEVQLQESGGGLVQPGGSLRLSCTASGFTFDDPDVGWFRQAPGNECELVSTISKDGSTYYTDSVKGRFTISRDYAKNTVYLQMNSLRAEDTAVYYCAADSNPIAPIRTCLGWYNYWGQGTLVTVSSYPYDVPDYA
notes: Two copies of Nb24 in a single polypeptide; supernatant of transfected Expi293 cells; also called 24-5-G4S2-24-5
The molecule B5 had an EC50 in assay [2] of 376 nM.

B6: Beovu-scFv with HA tag, product expressed by pGCB108-ITR130-AMDF1-Beovu-scFv (scFv)
scFv: EIVMTQSPSTLSASVGDRVIITCQASEIIHSWLAWYQQKPGKAPKLLIYLASTLASGVPSRFSGSGSGAEFTLTISSLQPDDFATYYCQNVYLASTNGANFGQGTKLTVLGGGGGSGGGGSGGGGSGGGGSEVQLVESGGGLVQPGGSLRLSCTASGFSLTDYYYMTWVRQAPGKGLEWVGFIDPDDDPYYATWAKGRFTISRDNSKNTLYLQMNSLRAEDTAVYYCAGGDHNSGWGLDIWGQGTLVTVSSYPYDVPDYA
notes: Benchmark anti-VEGF scFv; supernatant of transfected Expi293 cells; also called Beovu-scFv-HA; F1F3-HA
As to B6, in assay [3], the binding result was “binds”.

B7: bi-valent Nb24, product expressed by pGCB108-ITR130-AMDF1Nb24-5-(G4S)4-Nb24-5-HA (VHH)
chain: EVQLQESGGGLVQPGGSLRLSCTASGFTFDDPDVGWFRQAPGNECELVSTISKDGSTYYTDSVKGRFTISRDYAKNTVYLQMNSLRAEDTAVYYCAADSNPIAPIRTCLGWYNYWGQGTLVTVSSGGGGSGGGGSGGGGSGGGGSEVQLQESGGGLVQPGGSLRLSCTASGFTFDDPDVGWFRQAPGNECELVSTISKDGSTYYTDSVKGRFTISRDYAKNTVYLQMNSLRAEDTAVYYCAADSNPIAPIRTCLGWYNYWGQGTLVTVSSYPYDVPDYA
notes: Two copies of Nb24 in a single polypeptide; supernatant of transfected Expi293 cells; also called 24-5-G4S4-24-5
Consider B7, for which a half-maximal effect in assay [2] (EC50) was put at 464 nM.
